Each block holds one substance with its values, some of them ahead of it.
Tests used:
TGF-β3 (Homo sapiens) = TGF-β3 (Homo sapiens) (UniProt P10600); conditions: cited from earlier work
TGF-β2 (Homo sapiens) = TGF-β2 (Homo sapiens) (UniProt P61812); conditions: cited from earlier work
TGF-β1 (Homo sapiens) = TGF-β1 (Homo sapiens) (UniProt P01137); conditions: cited from earlier work
TGFR-3-ZP(ΔC) (mouse) = TGFR-3-ZP(ΔC) (mouse) (UniProt O88393); assay: SEC; analytical SEC of the ligand-free protein on Superdex 200 10/300, 4°C, 0.5 ml/min; apparent molecular weight against standards
[1] = biological target: P1-mZP (C-terminus mimetic peptide of murine TGFR-3-ZP, residues 735-782) (mouse) (UniProt O88393); assay: SPR; ProteOn XPR36; biotinylated peptides immobilised on neutravidin (300-600 RU), TGF-β2 as analyte; 25°C, HBS150 (10 mM HEPES pH 7.4, 150 mM NaCl, 3.4 mM EDTA, 0.005% Tween 20); kinetic fit 1:1 Langmuir with or without mass transfer; avidity of dimeric TGF-β2 expected
P1-mZP (C-terminus mimetic peptide of murine TGFR-3-ZP, residues 735-782) (mouse), sequence (O88393 735-782): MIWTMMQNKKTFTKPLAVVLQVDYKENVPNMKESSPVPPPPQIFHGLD

[2] = biological target: P2-hZP (C-terminus mimetic peptide of human TGFR-3, residues 737-788) (human) (UniProt Q03167); assay: as above
P2-hZP (C-terminus mimetic peptide of human TGFR-3, residues 737-788) (human), sequence (Q03167 737-788): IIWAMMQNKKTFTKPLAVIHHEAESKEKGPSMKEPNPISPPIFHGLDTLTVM

[3] = biological target: P4-mZP (17mer peptide of murine TGFR-3, residues 732-748) (mouse) (UniProt O88393); assay: as above
[4] = biological target: P5-hZP (17mer peptide of human TGFR-3, residues 734-750) (human) (UniProt Q03167); assay: as above

TGFR-3 membrane-proximal ectodomain C-terminal half of ectodomain, sequence (P26342 410-781): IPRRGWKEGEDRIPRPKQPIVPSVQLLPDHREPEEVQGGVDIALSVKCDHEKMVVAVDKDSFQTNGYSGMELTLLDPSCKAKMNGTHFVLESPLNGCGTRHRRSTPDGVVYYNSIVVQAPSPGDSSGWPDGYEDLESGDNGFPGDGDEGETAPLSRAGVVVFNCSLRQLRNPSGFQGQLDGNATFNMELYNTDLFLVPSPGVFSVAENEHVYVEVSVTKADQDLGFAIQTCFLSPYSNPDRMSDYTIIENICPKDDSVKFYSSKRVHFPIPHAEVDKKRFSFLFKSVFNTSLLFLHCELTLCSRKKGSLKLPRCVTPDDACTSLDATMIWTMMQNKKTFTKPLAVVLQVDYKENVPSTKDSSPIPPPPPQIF
TGF-β1 (Homo sapiens), sequence (P01137 279-390): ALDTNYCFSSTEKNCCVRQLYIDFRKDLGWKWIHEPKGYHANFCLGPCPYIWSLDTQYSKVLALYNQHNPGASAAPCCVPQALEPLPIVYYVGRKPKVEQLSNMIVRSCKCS
TGF-β2 (Homo sapiens), sequence (P61812 303-414): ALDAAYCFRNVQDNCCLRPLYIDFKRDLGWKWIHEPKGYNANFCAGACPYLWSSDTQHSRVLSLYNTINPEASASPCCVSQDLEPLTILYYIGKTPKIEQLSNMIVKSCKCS
TGF-β3 (Homo sapiens), sequence (P10600 301-412): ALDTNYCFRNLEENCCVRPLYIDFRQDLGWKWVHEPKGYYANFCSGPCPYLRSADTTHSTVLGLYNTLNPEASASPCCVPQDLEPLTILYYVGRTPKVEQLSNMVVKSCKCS

Substance: TGFR-3 membrane-proximal ectodomain C-terminal half of ectodomain (from UniProt P26342)
Kd (TGF-β3 (Homo sapiens)): 5800 nM
Kd (TGF-β2 (Homo sapiens)): 2600 nM
Kd (TGF-β1 (Homo sapiens)): 9700 nM

stoichiometry N (TGFR-3-ZP(ΔC) (mouse)): 2
Substance: TGFR-3-ZP(ΔC) (from UniProt O88393 438-734) (domain or fragment)

Kd [1]: 7.9 nM
koff [1]: 0.029 s⁻¹
kon [1]: 5.2e+06 M⁻¹ s⁻¹
Kd [2]: 15 nM
koff [2]: 0.044 s⁻¹
kon [2]: 4.4e+06 M⁻¹ s⁻¹
Kd [3]: 192 nM
koff [3]: 0.02 s⁻¹
kon [3]: 110000 M⁻¹ s⁻¹
Kd [4]: 353 nM
koff [4]: 0.029 s⁻¹
kon [4]: 79000 M⁻¹ s⁻¹
Substance: human TGF-β2 (ligand)
